Assay results from paper PMC10557622 (bioRxiv, 2023).

Experiments:
CENP-A/H4 = CENP-A/H4 (UniProt P49450;P62805); assay: BLI
[1] = biological target: 6xHis-MBP-CENP-C 1-600-SpyCatcher (UniProt Q03188 1-600); assay: BLI
6xHis-MBP-CENP-C 1-600-SpyCatcher, sequence (Q03188 1-600): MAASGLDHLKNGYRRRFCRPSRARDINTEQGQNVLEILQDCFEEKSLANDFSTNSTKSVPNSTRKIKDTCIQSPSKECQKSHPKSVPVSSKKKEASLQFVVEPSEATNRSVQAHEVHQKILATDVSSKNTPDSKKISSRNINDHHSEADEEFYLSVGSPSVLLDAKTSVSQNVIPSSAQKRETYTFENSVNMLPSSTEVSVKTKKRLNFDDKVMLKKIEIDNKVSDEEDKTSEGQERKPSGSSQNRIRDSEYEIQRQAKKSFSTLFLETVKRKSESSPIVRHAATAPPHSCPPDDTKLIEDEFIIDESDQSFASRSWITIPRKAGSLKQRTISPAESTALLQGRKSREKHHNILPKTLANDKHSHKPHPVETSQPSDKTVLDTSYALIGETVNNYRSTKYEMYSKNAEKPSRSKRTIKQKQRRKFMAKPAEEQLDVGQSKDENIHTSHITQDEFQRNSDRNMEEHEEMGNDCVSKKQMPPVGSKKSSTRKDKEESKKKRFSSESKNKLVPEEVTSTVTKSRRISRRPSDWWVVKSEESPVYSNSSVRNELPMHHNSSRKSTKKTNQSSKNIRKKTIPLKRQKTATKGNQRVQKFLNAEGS

Row | Binder | Kd (CENP-A/H4) [nM] | Kd [1] [nM]
1 | purified BANF1 (natural protein) MTTSQKHRDFVAEPMGEKPVGSLAGIGEVLGKKLEERGFDKAYVVLGQFLVLKKDEDLFREWLKDTCGANAKQSRDCFGCLREWCDAFL | 290 | –
2 | recombinant Human EMD protein with N-terminal His-tag (natural protein) MDNYADLSDTELTTLLRRYNIPHGPVVGSTRRLYEKKIFEYETQRRRLSPPSSSAASSYSFSDLNSTRGDADMYDLPKKEDALLYQSKGYNDDYYEESYFTTRTYGEPESAGPSRAVRQSVTSFPDADAFHHQVHDDDLLSSSEEECKDRERPMYGRDSAYQSITHYRPVSASRSSLDLSYYPTSSSTSFMSSSSSSSSWLTRRAIRPENRAPGAGLGQDRQVPLWGQLLLFLVFVIVLFFIYHFMQAEEGNPF | 137 | 404
